Measured values as given in PMC6783653, “TIP30 counteracts cardiac hypertrophy and failure by inhibiting translational elongation” (EMBO Molecular Medicine, 2019).

Target: T1, GST-tagged eEF1A1 (rat, UniProt P62630 1-462)
T1 construct: eEF1A1, rat, open reading frame BC128723.1; Cloned into pGEX-4T1, which should place GST at the N-terminus (surmise); also called GST-eEF1A1
T1 sequence (looked up): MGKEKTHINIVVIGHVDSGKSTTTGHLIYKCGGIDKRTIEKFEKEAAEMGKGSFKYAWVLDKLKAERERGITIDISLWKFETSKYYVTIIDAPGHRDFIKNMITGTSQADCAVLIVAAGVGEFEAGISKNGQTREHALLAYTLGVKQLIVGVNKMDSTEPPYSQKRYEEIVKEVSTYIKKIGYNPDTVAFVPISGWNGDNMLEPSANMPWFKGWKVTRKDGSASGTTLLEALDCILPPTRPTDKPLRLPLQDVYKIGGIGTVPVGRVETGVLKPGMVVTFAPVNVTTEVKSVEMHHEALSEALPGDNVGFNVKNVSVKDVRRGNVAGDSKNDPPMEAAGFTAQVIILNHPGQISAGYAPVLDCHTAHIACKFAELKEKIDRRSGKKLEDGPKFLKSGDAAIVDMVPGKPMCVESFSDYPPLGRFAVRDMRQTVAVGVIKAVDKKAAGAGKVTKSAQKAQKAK
Test: pull-down; GST or GST-eEF1A1 on glutathione agarose beads, purified eEF1B2-His; purified TIP30-His added in increasing amounts
Settings: both partners purified

- binding result: binds
B1: purified eEF1B2-His (natural protein, rat, UniProt A6IPG1 1-225, looked up)
chain: MGFGDLKTPAGLQVLNDYLADKSYIEGYVPSQADVAVFEAISGPPPADLCHALRWYNHIKSYEKEKASLPGVKKSLGKYGPVSVADTTGSGAADAKDDDDIDLFGSDDEEESEDAKRLREERLAQYESKKAKKPAVVAKSSILLDVKPWDDETDMTKLEECVRSIQADGLVWGSSKLVPVGYGIKKLQIQCVVEDDKVGTDMLEEQITAFEDYVQSMDVAAFNKI
notes: eEF1B2, rat, open reading frame NM_001108799.2
